Source: patent US20230212319A1, “NOVEL ANTIGEN BINDING DOMAINS AND SYNTHETIC ANTIGEN RECEPTORS INCORPORATING THE SAME” (University of Southern California, priority 2020, published 2023)

B1: 22215 (protein)
chain: MALPVTALLLPLALLLHAARPACPYINIYNAEPANPSEKNSPTQYAYGTGAVVRGAEFDIQMTQSPSSLSASVGDRVTITCKASDHINNWLAWYQQKPGQAPKLLIYGATTLETGVPSRFSGSGSGTDYTLTISSLQPEDFATYYCQQSWNTPWTFGQGTKLEIKRLEDLKNVFPPEVAVFEPSKAEIAHTQKATLVCLATGFYPDHVELSWWVNGKEVHSGVCTDPQPLKEQPALNDSRYCLSSRLRVSATFWQNPRNHFRCQVQFYGLSENDEWTQDRAKPVTQIVSAEAWGRADCGITSASYHQGVLSATILYEILLGKATLYAVLVSALVLMAMVKRKDSRGRAKRSGSGATNFSLLKQAGDVEENPGPTSATMDWIWRILFLVGAATGAHSGPQVQLQESGGGLAQAGGSLRLSCAASGRTFSMGWFRQAPGKEREFVAAITYSGGSPYYASSVRGRFTISRDNAKNTVYLQMNSLKPEDTAVYYCAANPTYGSDWNAENWGQGTQVTVSSGSGGGGSGGGGSGGGGSFEQVQLQQPGAELVKPGASVKMSCKASGYAFSSYWINWMKQKPGQGLEWIGQIYPGDGDTNYNGKFKGRATLTADTSSSTAYMQLSSLTSEDSAVYFCARSITTVVGCAMDYWGQGTSVTVSSTRIQNPDPAVYQLRDSKSSDKSVCLFTDFDSQTNVSQSKDSDVYITDKCVLDMRSMDFKSNSAVAWSNKSDFACANAFNNSIIPEDTFFPSSDVPCDVKLVEKSFETDTNLNFQNLSVIGFRILLLKVAGFNLLMTLRLWSSRAKRSGSGVKQTLNFDLLKLAGDVESNPGPSRGHMTEYKPTVRLATRDDVPRAVRTLAAAFADYPATRHTVDPDRHIERVTELQELFLTRVGLDIGKVWVADDGAAVAVWTTPESVEAGAVFAEIGPRMAELSGSRLAAQQQMEGLLAPHRPKEPAWFLATVGVSPDHQGKGLGSAVVLPGVEAAERAGVPAFLETSAPRNLPFYERLGFTVTADVEVPEGPRTWCMTRKPGA
B2: 22167 (protein)
chain: MALPVTALLLPLALLLHAARPEVQLQESGGGLVQPGGSLRLSCAASGRTFSSLFMGWVRQAPGKGLELVSAISRYSLYTYYADSVKGRFTISRDNAKNTLYLQMNSLRPEDTAVYYCASKLEYTSNDYDSWGQGTLVTVSSGTGGGGSGGGGSGGGGSEFDIQMTQSPSSLSASVGDRVTITCKASDHINNWLAWYQQKPGQAPKLLIYGATTLETGVPSRFSGSGSGTDYTLTISSLQPEDFATYYCQQSWNTPWTFGQGTKLEIKRLEIQNPDPAVYQLRDSKSSDKSVCLFTDFDSQTNVSQSKDSDVYITDKCVLDMRSMDFKSNSAVAWSNKSDFACANAFNNSIIPEDTFFPSSDVPCDVKLVEKSFETDTNLNFQNLSVIGFRILLLKVAGFNLLMTLRLWSSRAKRSGSGVKQTLNFDLLKLAGDVESNPGPTSATMDWIWRILFLVGAATGAHSGPQVQLQESGGGLAQAGGSLRLSCAASGRTFSMGWFRQAPGKEREFVAAITYSGGSPYYASSVRGRFTISRDNAKNTVYLQMNSLKPEDTAVYYCAANPTYGSDWNAENWGQGTQVTVSSGSGGGGSGGGGSGGGGSFEQVQLQQPGAELVKPGASVKMSCKASGYAFSSYWINWMKQKPGQGLEWIGQIYPGDGDTNYNGKFKGRATLTADTSSSTAYMQLSSLTSEDSAVYFCARSITTVVGCAMDYWGQGTSVTVSSTREDLKNVFPPEVAVFEPSKAEIAHTQKATLVCLATGFYPDHVELSWWVNGKEVHSGVCTDPQPLKEQPALNDSRYCLSSRLRVSATFWQNPRNHFRCQVQFYGLSENDEWTQDRAKPVTQIVSAEAWGRADCGITSASYHQGVLSATILYEILLGKATLYAVLVSALVLMAMVKRKDSRGRAKRSGSGATNFSLLKQAGDVEENPGPSRGHMTEYKPTVRLATRDDVPRAVRTLAAAFADYPATRHTVDPDRHIERVTELQELFLTRVGLDIGKVWVADDGAAVAVWTTPESVEAGAVFAEIGPRMAELSGSRLAAQQQMEGLLAPHRPKEPAWFLATVGVSPDHQGKGLGSAVVLPGVEAAERAGVPAFLETSAPRNLPFYERLGFTVTADVEVPEGPRTWCMTRKPGA
B3: 22121 (protein)
chain: MALPVTALLLPLALLLHAARPDIQMTQSPSSLSASVGDRVTITCKASDHINNWLAWYQQKPGQAPKLLIYGATTLETGVPSRFSGSGSGTDYTLTISSLQPEDFATYYCQQSWNTPWTFGQGTKLEIKRLEGQPKANPTVTLFPPSSEELQANKATLVCLISDFYPGAVTVAWKADGSPVKAGVETTKPSKQSNNKYAASSYLSLTPEQWKSHRSYSCQVTHEGSTVEKTVAPTECSPIKTDVITMDPKDNCSKDANDTLLLQLTNTSAYYMYLLLLLKSVVYFAIITCCLLRRTAFCCNGEKSRAKRSGSGATNFSLLKQAGDVEENPGPTSATMDWIWRILFLVGAATGAHSGPQVQLQESGGGLAQAGGSLRLSCAASGRTFSMGWFRQAPGKEREFVAAITYSGGSPYYASSVRGRFTISRDNAKNTVYLQMNSLKPEDTAVYYCAANPTYGSDWNAENWGQGTQVTVSSGSGGGGSGGGGSGGGGSFEQVQLQQPGAELVKPGASVKMSCKASGYAFSSYWINWMKQKPGQGLEWIGQIYPGDGDTNYNGKFKGRATLTADTSSSTAYMQLSSLTSEDSAVYFCARSITTVVGCAMDYWGQGTSVTVSSTRASTKGPSVFPLAPSSKSTSGGTAALGCLVKDYFPEPVTVSWNSGALTSGVHTFPAVLQSSGLYSLSSVVTVPSSSLGTQTYICNVNHKPSNTKVDKRVEPKSCEVKTDSTDHVKPKETENTKQPSKSCHKPKAIVHTEKVNMMSLTVLGLRMLFAKTVAVNFLLTAKLFFLRAKRSGSGVKQTLNFDLLKLAGDVESNPGPSRGHMTEYKPTVRLATRDDVPRAVRTLAAAFADYPATRHTVDPDRHIERVTELQELFLTRVGLDIGKVWVADDGAAVAVWTTPESVEAGAVFAEIGPRMAELSGSRLAAQQQMEGLLAPHRPKEPAWFLATVGVSPDHQGKGLGSAVVLPGVEAAERAGVPAFLETSAPRNLPFYERLGFTVTADVEVPEGPRTWCMTRKPGA
B4: 22168 (protein)
chain: MALPVTALLLPLALLLHAARPEVQLVESGGGLVQPGGSLRLSCEASGFASDDYIIGWFRQAPGKEREGVSCISSKYANTVYTDSVKGRFRLSRGTAKNTVYLQMSALKPEDTAVYYCAMDSRRVTCPEISTMHRNFDSWGQGTLVTVSSGTGGGGSGGGGSGGGGSEFDIQMTQSPSSLSASVGDRVTITCKASDHINNWLAWYQQKPGQAPKLLIYGATTLETGVPSRFSGSGSGTDYTLTISSLQPEDFATYYCQQSWNTPWTFGQGTKLEIKRLEIQNPDPAVYQLRDSKSSDKSVCLFTDFDSQTNVSQSKDSDVYITDKCVLDMRSMDFKSNSAVAWSNKSDFACANAFNNSIIPEDTFFPSSDVPCDVKLVEKSFETDTNLNFQNLSVIGFRILLLKVAGFNLLMTLRLWSSRAKRSGSGVKQTLNFDLLKLAGDVESNPGPTSATMDWIWRILFLVGAATGAHSGPQVQLQESGGGLAQAGGSLRLSCAASGRTFSMGWFRQAPGKEREFVAAITYSGGSPYYASSVRGRFTISRDNAKNTVYLQMNSLKPEDTAVYYCAANPTYGSDWNAENWGQGTQVTVSSGSGGGGSGGGGSGGGGSFEQVQLQQPGAELVKPGASVKMSCKASGYAFSSYWINWMKQKPGQGLEWIGQIYPGDGDTNYNGKFKGRATLTADTSSSTAYMQLSSLTSEDSAVYFCARSITTVVGCAMDYWGQGTSVTVSSTREDLKNVFPPEVAVFEPSKAEIAHTQKATLVCLATGFYPDHVELSWWVNGKEVHSGVCTDPQPLKEQPALNDSRYCLSSRLRVSATFWQNPRNHFRCQVQFYGLSENDEWTQDRAKPVTQIVSAEAWGRADCGITSASYHQGVLSATILYEILLGKATLYAVLVSALVLMAMVKRKDSRGRAKRSGSGATNFSLLKQAGDVEENPGPSRGHMTEYKPTVRLATRDDVPRAVRTLAAAFADYPATRHTVDPDRHIERVTELQELFLTRVGLDIGKVWVADDGAAVAVWTTPESVEAGAVFAEIGPRMAELSGSRLAAQQQMEGLLAPHRPKEPAWFLATVGVSPDHQGKGLGSAVVLPGVEAAERAGVPAFLETSAPRNLPFYERLGFTVTADVEVPEGPRTWCMTRKPGA

tested on: RAJI-CD19-KO cells; experiment: JNG assay, co-culture with RAJI-CD19-KO cells; type: cell-based; conditions: co-culture with Raji-CD19-KO
Description: Cellular supernatant is collected and assayed for the induction of cytokines (e.g., IL2).
JNG (Jurkat cells expressing EGFP under an NFAT promoter) were infected with lentiviral vectors encoding different single chain and multi-chain SARs by spinfection in the presence of 8 µg/ml of Polybrene® (Sigma, Catalog no. H9268). The Jurkat-NFAT-GFP cells are engineered in such a way that the IL-2 promoter, which carries NFAT binding sites, is cloned upstream of the GFP gene. These cells have been used to study signaling via TCR and CAR. The different SARs were stably expressed in Jurkat NFAT-GFP cells by lentiviral mediated gene transfer, followed by selection with puromycin or blasticidin. No drug selection was used in case the construct lacked an antibiotic resistance gene. The SAR-expressing Jurkat-NFAT-GFP cells were cocultured with the target cells at E:T ratio of approximately 1:2 for approximately 4 hours to 18 hours. When the interaction between SIRs and their target antigen results in activation of the NFAT pathway, GFP expression is induced. […] GFP expression was monitored by FACS analysis. The Jurkat-NFAT-GFP (parental) cells were used as control. The structure of different constructs can be determined based on their names. […] The sequence of the other constructs in the table can be similarly determined from their names and by referring to the different Tables of this disclosure that provide the names and SEQ ID NO of the different modules. Alternatively, the composition and modular architecture of the different SAR constructs can be determined from their sequences by bioinformatics tools, including using nucleic acid and amino acids homology searches. A SAR is considered positive in the assay in case the SAR expressing Jurkat-NFAT-GFP cells show greater % GFP positive cells when cultured with the target cell line as compared to parental Jurkat-NFAT-GFP cells. […] In general, the number +/-, +, 2+, 3+, 4+, 5+ refer to approximately 5%, 10%, 20%, 30%, 40% and 50% GFP positive cells. The % of GFP induction in the above assay is dependent not only the relative strength of the SAR but also, among other factors, on the relative level of expression of the SAR in the JNG cells and the relative level of expression of the target antigen in the target cell line. To control for the difference in gene transduction efficiency of the different SAR constructs, the experiment was conducted with JNG cells transduced with SAR constructs co-expressing a drug resistance gene (e.g., puromycin or PAC) followed by drug selection to generate a stable population of SAR-expressing cells. It is to be noted that the drug resistance gene (e.g., PAC) in the SAR constructs is optional and in vivo studies were conducted with SAR constructs lacking the PAC gene.

Question: For B1, which “NFAT-GFP ASSAY: Raji-CD19-KO” value is on record?
Answer: The value was “Raji (3+), Raji-CD19-KO (3+) (refer to approximately 5%, 10%, 20%, 30%, 40% and 50% GFP positive cells)”.

Question: B2 was tested. Which “NFAT-GFP ASSAY: Raji-CD19-KO” value did it give?
Answer: The value was “+ (refer to approximately 5%, 10%, 20%, 30%, 40% and 50% GFP positive cells)”.

Question: With B3 as the molecule, how does the “NFAT-GFP ASSAY: Raji-CD19-KO” value read?
Answer: Its value is 4+ (refer to approximately 5%, 10%, 20%, 30%, 40% and 50% GFP positive cells).

Question: For B4, which “NFAT-GFP ASSAY: Raji-CD19-KO” value is on record?
Answer: Its value is 2+ (refer to approximately 5%, 10%, 20%, 30%, 40% and 50% GFP positive cells).

tested on: RAJI cells; experiment: JNG assay, co-culture with RAJI cells; type: cell-based; conditions: JNG cells expressing construct, co-culture with Raji
Outline: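 Jurkat NFAT-GFP (JNG) cells stably transduced with SARs by lentivirus, with drug selection where the construct carried a resistance gene, then co-cultured with target cells at E:T ~1:2 for ~4–18 h. % GFP-positive cells measured by FACS against parental JNG; +/- to 5+ correspond to ~5–50% GFP-positive.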

Question: Which “NFAT-GFP ASSAY: Raji” value does the source give for B1 here?
Answer: The value was “Raji (3+), Raji-CD19-KO (3+) (refer to approximately 5%, 10%, 20%, 30%, 40% and 50% GFP positive cells)”.

Question: For B2, which “NFAT-GFP ASSAY: Raji” value is on record?
Answer: Its value is “+ (refer to approximately 5%, 10%, 20%, 30%, 40% and 50% GFP positive cells)”.

Question: With B3 as the molecule, how does the “NFAT-GFP ASSAY: Raji” value read?
Answer: The value was 5+ (refer to approximately 5%, 10%, 20%, 30%, 40% and 50% GFP positive cells).

Question: For B4, which “NFAT-GFP ASSAY: Raji” value is on record?
Answer: The value was 3+ (refer to approximately 5%, 10%, 20%, 30%, 40% and 50% GFP positive cells).
